Assay results taken from the RNAGym collection of RNA variant scans (doi:10.1073/pnas.2313332121).
Fewer inactive variants are shown than the library holds.

B1: TPR 5TU (parent)
chain: GGAUCUUCUCGAUCUAACAAAAAAGACAAAUCUGCCACAAAGCUUGAGAGCAUCUUCGGAUGCAGAGGCGGCAGCCUUCGGUGGCGCGAUAGCGCCAACGUUCUCAACUAUGACACGCAAAACGCGUGCUCCGUUGAAUGGAGUUUAUCAUG

Variants of: B1
Experiment: polymerase ribozyme fitness, log enrichment relative to wild type (log ratio); higher = more active; in vitro selection for triplet polymerase activity
In short: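 Each subunit of a heterodimeric triplet polymerase ribozyme was represented by a PCR-built, transcribed mutant library that underwent triplicate single-round in vitro selection with frozen incubation at −7 °C. Extended constructs were recovered by gel excision, streptavidin-bead capture and RT-PCR, and Illumina sequencing of input and output libraries kept genotypes with ≥10 input reads and ≥1 read per output. Fitness is the logarithm of genotype enrichment relative to wild-type enrichment, from inverse-variance-weighted replicate averages, with a logarithm base of 2.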

Point of comparison: GGAUCUUCUCGAUCUAACAAAAAAGACAAAUCUGCCACAUAGCUUGAGAGCAUCGUCGGAUGCAGAGGCGGCAGCCUUCGGUGGCGCGAUAGCGUCAACGUUCUGAACUAUGACAGGCAAAACGCGUGCUCCGUUGAAUGGAGUUUAUCAUG, “polymerase ribozyme fitness (log ratio)” value -3.94. Against it:
- GGAUCUUCUCGAUCUAACAAAAAAGACAAAUCUGCCACAUAGCUUGAGAGCAUCUUCGGAUACAGAGGCGGCAGCCUUCGGUGGCGCGAUAGCGUCAACGUUCCCAACUAUGACACGCAAAACGCGUGCUCCCUUGAAUGGAGUUUAUCAUG — higher, -3.3
- GGAUCUUCUCGAUCUAACAAAAAAGACAAAUCUGCCACAACGCUUGCGAGCAUCUUCGGAUGCAGAGGCGGCAGCCUUCGGUGGCGCGAUAGCGCUAACGUUUUCAACUAUGACGCGCAAAACGCGUGCUCCGUUGAAUGGAGUUUAUCAUG — higher, -3.11
- GGAUCUUCUCGAUCUAACAAAAAAGACAAAUCUGCCACAUAGCUUGAGAGCAUCAUCGGAUGCAGAGGCGGCAGCCUUCGGUGGAGCGAUAGCGCCAACGUUCUCAACUAUGACAAGCAAAACGCGUGCUCCGUUGAAUGGAGUUUAUCAUG — higher, -0.563
- GGAUCUUCUCGAUCUAACAAAAAAGACAAAUCUGCCACAACGCUUGAGUGCAACUUCGGCUGCAGAGGCGGCAGCCUUCGGUGGCGCUAUAGCGCCAACGUUCUCAACUAUGACACGCAAAUCGCGUGCUCCGAUGAAUGGAGUUUAUCAUG — lower, ≤ -4.2
- GGAUCUUCUCGAUCUAACAAAAAAGACAAAUCUGCCACAUAGCUUGAGAGCAUCAUCGAAUGCAGAGGCGGCAGCCUUUGGGAGCGCGAUAGCGCCAACGUUCUCAACUAUGACACGCAAAACGCGUACUCCGUUGAAGGGAAUUUAUCAUG — lower, ≤ -4.2
- GGAUCUUCUCGAUCUAACAAAAAAGACAAAUCUGCCACAUAGCUUGAGAGCAUCUUCGGAUGCAGAGGCGGCAGCCUUCGGUGGCACGAUAGCGCCAACGUUCUCAACUAUGACACGCAAAACGCGUGCUCCGUUGAAUGGAGUUUAUCAUG — higher, -0.914
- GGAUCUUCUCGAUCUAACAAAAAAGACAAAUCUGCCACAUAGCUUGAGAGCAUCUUCGGAAGCAGAGGCGGCAGCCUUAGGUGGCGCGAUAGCGCCAACGUUCGCAACUAUGACACGCAAAACGCGUGCUCCGUUGAAUGGAGUUUAUCAUG — lower, ≤ -4.2
- GGAUCUUCUCGAUCUAACAAAAAAGACAAAUCUGCCACAUAGCUUGAGAGCAUCUUCGGAUUCAGAGGCGGGAGCCUUCCGCGGCGCGAUAGCGCCAACGUUCUCAACUAUGACACGCAAAACGCGUGCUCCGUUGAUUGGAGUUUAUCAUG — lower, ≤ -4.2
- GGAUCUUCUCGAUCUAACAAAAAAGACAAAUCUGCCACAUAGCUUGAGAGCAUCUUCCGAUGCAGAGGCGGCAGCCUUCGGUGGCGCGAUAGCGCCAACGUUCUCAACUAUGCCACGCAAAACACGUGCUCCGUUGAAUGGAGUUUAUCAUG — higher, -2.93
- GGAUCUUCUCGAUCUAACAAAAAAGACAAAUCUGCCACAUAGCUUGAGAGCAUCUUCGGAAGCAGAGGCGGCAGCCUUCGGUGGCGCGAUAGCGCCAACGUUCUCAUCUAUGACACGCAAAACGCGUUCUCCGUUGAAUGGAGUUUAUCACG — lower, ≤ -4.2
- GGAUCUUCUCGAUCUAACAAAAAAGACAAAUCUGCCACAACGCUUGAGCUAAUCUUCGGAUGCAGAGGCGGCAGCCUUCGGUGGCGCGAUACCGCCAACGUUCUCGACUAUGACACGCAAAACGCGUGCUCCGUUGAAUGGAGUUUAUCAUG — lower, ≤ -4.2
- GGAUCUUCUCGAUCUAACAAAAAAGACAAAUCUGCCACAUAGCUUGAGAGCAUCUUCGGAUGCAGAGACGGCAGCCUUCGGUGGCGCGAUAGCGCCAACGUUCUCAACUAUGACAAGCAAAACGCGUGCUCCGUUGUAUGGAGUUUAUCAUG — lower, ≤ -4.2
- GGAUCUUCUCGAUCUAACAAAAAAGACAAAUCUGCCACAUAGCUUGAGAGCAUCUUCGGAUGCAGAGGCGGCAGCCUUCGGUGUAGCGAUAGCGCCAACGUUCUCAACUAUGACACGCAAAACGCGUGCUCCGUUGAAUGGAGUUUAUCAUG — higher, -0.755
- GGAUCUUCUCGAUCUAACAAAAAAGACAAAUCUGCCACAACGCUUGCGAGCAUCUACGGAUGCAGAGGCGGCAGCCUUCGGUGGUGCGAUAGCGCCAACGUUCUCAACUAUGACACGCAAAACGCGUGCUCCGUUGAAUGGAGUUUAUCAUG — higher, -1.41
- GGAUCUUCUCGAUCUAACAAAAAAGACAAAUCUGCCACAUAGCUUGAGAGCAACUUCGGAUGCAGAGGCGGCAGCCUUCGGUGGCGCGAUAGCGCCAACGUUCUCAACUAUGACACGCAAAACGCGUGCUCCGUUGAAUGGAGUUUAUCAUG — higher, -0.83
- GGAUCUUCUCGAUCUAACAAAAAAGACAAAUCUGCCACAUAGCUUGAGAGCACCUUCGGAUGCAGAGGCGGCAGCCUUCGGUGGCGCGAUAGCGCCAACGUUCUCAACUAUGACACGCAAAACGCGUGCUCCGUUGAAUGGAGUUUAUCAUG — higher, 0.103
- GGAUCUUCUCGAUCUAACAAAAAAGACAAAUCUGCCACAUAGCUUGAGAGCAUCUUCGGAUGCAGAGCCGGCAGCCUUCGGUGGCGCGAUAGCGCUAACGUUCUAAACUAUGACACGCAAAACGCGUGCUCCGUUGAAUGGAGUUUAUCAUG — lower, ≤ -4.2
- GGAUCUUCUCGAUCUAACAAAAAAGACAAAUCUGCCACAUAGCUUGAGAGCAUCUUCGGAUGCAGAGGCGGCAGCCUUCGGUGGCGCGAUACCGCCAACGUCGUCAACUAUGGCACGCAAAACGCGUGCUCGGUUGAAUGGAGUUCAUCAUU — lower, ≤ -4.2
- GGAUCUUCUCGAUCUAACAAAAAAGACAAAUCUGCCACAUAGCUUGAGAGCAUCUUCGGAUACAGAGGCGGCAGCCUUCGGUGGCGCGAUAGCGCCAACGUUCUCAACUAUGACACGCAAAACGCGUGCUGCGUUAAAUGGAGUUUAUCAUG — higher, -3.43
- GGAUCUUCUCGAUCUAACAAAAAAGACAAAUCUGCCACAUAGCUUGAGAGCAUCUUCGGAUGCAGAGGCGGCAGCCUUCGGGGGCGCGAUAACGCCAACGUUCUCAACUAUGACACGCAAAACGCGUGCUCCGUUGAAUGGAGUUUAUCAUG — higher, -2.82
- GGAUCUUCUCGAUCUAACAAAAAAGACAAAUCUGCCACAUAGCUUGAGAGCAUCAUCGGAUGCAGAGGCGGCAGCCUUCGGUGGCACGAUAGCGCCAACGUUCUCAACUAUGACACGCAAAACGCGUGCUCCUUUGAAUGGAGUUUAUCAUG — lower, ≤ -4.2
- GGAUCUUCUCGAUCUAACAAAAAAGACAAAUCUGCCACAUAGCUUGAGAGCAUCUUCGGAGGCAGAGGUGGCAGCCUUCGGUGGCGCGAUAGCGCCAACGUUCUCAACUAUGACACGCAAAACGCGUGCUCCGUUGAAUGGAGUUUAUCAUG — higher, -1.67
- GGAUCUUCUCGAUCUAACAAAAAAGACAAAUCUGCCACAACGCUUGAGGGCAUCUUCGGAUGCAGAGGCGGCAGCCUUCGGAGGCGCGAUGGCGCCAACGUUCUCAACUAUGACACGCAAAACGCGUGCUCCGUUGAAUGGAGUUUAUCAUG — lower, ≤ -4.2
- GGAUCUUCUCGAUCUAACAAAAAAGACAAAUCUGCCACAACGCUUGAGCGCAUCUUCGGAUGCAGAGGCGGCAGCCUUCGGUGGCGCGAUAGCGCCAACGUUCUCAACUAUGACACGCAAAACGCGUGCUCCGUUGAAUGGAGUUUAUCAUG — within 0.2 log units, -4.01
- GGAUCUUCUCGAUCUAACAAAAAAGACAAAUCUGCCACAUAGCUUGAGAGCAUCAUCGGAUGCAGAGGCGGCAGCCUUCGGUGGCGCGAUAGCGCCAACGCUCUCAACUAUGACACGCACAACGCGUGCUCCGUUGAAUGGAGUUUAUCAUG — higher, -0.406
- GGAUCUUCUCGAUCUAACAAAAAAGACAAAUCUGCCACAUAGCUUGAGAGCAUCUUCGGAUGCAGAGACGGCAGCCUUCGGUGGCGCGAUAGCGCCAACGUUCUCAACUAUGACACGCAAAACGCGUGCUCCGUUGAAUGGAGUUUAUCAUG — within 0.2 log units, -4.03
- GGAUCUUCUCGAUCUAACAAAAAAGACAAAUCUGCCACAUAGCUUGAGAGCAUCUUCGUAUGCAGAGGCGGCAGACUUCGGUGGUGCGAUAGCGCCAACGUUCUCAACAAUGACACGCAAAACGCGUGCUCCGUUGAAUGGAGUUUAUCAUG — lower, ≤ -4.2
- GGAUCUUCUCGAUCUAACAAAAAAGACAAAUCUGCCACAUAGCUUGAGAGCAUCUUCGGAUGCAGAGGCGGCAGCCUUCGGUGGCGCCAUAGCGCCAACGGUCUCAACUAUGACACGCAAAACGCGUGCUCCGUUGAAUGGAGUUUAUCAUG — lower, ≤ -4.2
- GGAUCUUCUCGAUCUAACAAAAAAGACAAAUCUGCCACAUAGCUUGAGAGCAUCUUCGCAUGCAGAGGCGGCAGCCUUCGGUGGCGCGAUAGCGCCAACGUUCUCAACUAUGACACGCAAAACGCGUGCUCCGUUGAAUGGAGUUUAUCAUG — higher, 0.561
- GGAUCUUCUCGAUCUAACAAAAAAGACAAAUCUGCCACAUAGCUUGAGAGCAUCUUCGGAUGCAGAGGCGGCAGCCUUCGGUGGCGCGAUAGCUCCAACGUUCUCAACUAUGACACGCAAAACGCGUGCUCCGUUCAAUGGAGUUUAUCAUG — within 0.2 log units, -4.02
- GGAUCUUCUCGAUCUAACAAAAAAGACAAAUCUGCCACAUAGCUUGAGAGCAUCUUCGGAUGCAGAGGCGGCAGCCUUCGGUGGCACGAUAGCGCCAACGUUCUCAACUAUGACACGCAAAACGCGUGCUCCGUUGAAUGAAGUUUAUCAUG — higher, -1.06
- GGAUCUUCUCGAUCUAACAAAAAAGACAAAUCUGCCACAACGCUUGAGCGCAUCUUCGGAUGCAGAGGCGGCAGCCUUCGAUGGCGCGAUAGCGCCCACGUUGUCAACUAUGACACGCAAAACUCGUGCUCCGCUGAAUGGAGUUUAUCAUG — lower, ≤ -4.2
- GGAUCUUCUCGAUCUAACAAAAAAGACAAAUCUGCCACAACGCUUGUGAGCAUCUUCGUAAGCAGAGGCCGCAGCCUUCGGUGUCGCGAUAGCGCCAACGUUCUCAACUAUGACACGCAAAACGAGUGCUCCGUUGAAUGGAGUUUAUCAUG — lower, ≤ -4.2
- GGAUCUUCUCGAUCUAACAAAAAAGACAAAUCUGCCACAUAGCUUGAGAGCAUCUUCGGAUGCAGAGGCGGCAGCCUUCGGUGACGCGAUAGCGCCAACGUUCUCAACUAUGACACGCAAAACGCGUGCUCCGUUGAAUGGAGUUUAUCAUG — higher, -0.341
- GGAUCUUCUCGAUCUAACAAAAAAGACAAAUCUGCCACAUAGCUUGAGAGCAUCUACGGAUGCAGAGGCGGCAGCCUUCCGUGUCGCGAUAGCGCCAAAGUUCUCAACUAUGACACGCAAAACGCGUGCUCCGUUGAAUGGAUUUUAUCAUG — lower, ≤ -4.2
- GGAUCUUCUCGAUCUAACAAAAAAGACAAAUCUGCCACAACGCUUGAGAGCCUCUUCGGAUGCAGAGGCAGCAGCCUUCGGUGGCGCGAUAGCGCCAACGUUCUCAACUAUGACACGUAAAACGCGUGCUCCGUUGAAUGGAGUUUAUCAUG — lower, ≤ -4.2
- GGAUCUUCUCGAUCUAACAAAAAAGACAAAUCUGCCACAUAGCUAGAGAGCAUCUUCGGAUGCAGAGGUGGCAGCCUUCGGUUGCGCGAUAGCGCCAACGUUCUCAACUAUGACACGCAAAACGCGUGCUCCGUUGAAUGAAGAUUAUCAUG — lower, ≤ -4.2
